Reference: publication PMC9107513

Legend:
[1] = western blot, endogenous SERCA3, C2C12 myotubes ± MG-132; details: glycan lost; control: vector / control siRNA
[2] = western blot, FLAG-tagged wild-type SERCA3 in C2C12; details: glycan lost; control: vector / control siRNA

| Protein | expression_or_secretion [1] | expression_or_secretion [2] |
| --- | --- | --- |
| SERCA3: siRNA-mediated knockdown of OGT (protein) parent chain: MEEAHLLSAADVLRRFSVTAEGGLSLEQVTDARERYGPNELPTEEGKSLWELVVEQFEDLLVRILLLAALVSFVLAWFEEGEETTTAFVEPLVIMLILVANAIVGVWQERNAESAIEALKEYEPEMGKVIRSDRKGVQRIRARDIVPGDIVEVAVGDKVPADLRLIEIKSTTLRVDQSILTGESVSVTKHTDAIPDPRAVNQDKKNMLFSGTNIASGKALGVAVATGLQTELGKIRSQMAAVEPERTPLQRKLDEFGRQLSHAISVICVAVWVINIGHFADPAHGGSWLRGAVYYFKIAVALAVAAIPEGLPAVITTCLALGTRRMARKNAIVRSLPSVETLGCTSVICSDKTGTLTTNQMSVCRMFVVAEAEAGTCRLHEFTISGTTYTPEGEVRQGEQPVRCGQFDGLVELATICALCNDSALDYNEAKGVYEKVGEATETALTCLVEKMNVFDTDLKGLSRVERAGACNSVIKQLMRKEFTLEFSRDRKSMSVYCTPTRADPKVQGSKMFVKGAPESVIERCSSVRVGSRTAPLSTTSREHILAKIRDWGSGSDTLRCLALATRDTPPRKEDMHLDDCSRFVQYETDLTFVGCVGMLDPPRPEVAACITRCSRAGIRVVMITGDNKGTAVAICRRLGIFGDTEDVLGKAYTGREFDDLSPEQQRQACRTARCFARVEPAHKSRIVENLQSFNEITAMTGDGVNDAPALKKAEIGIAMGSGTAVAKSAAEMVLSDDNFASIVAAVEEGRAIYNNMKQFIRYLISSNVGEVVCIFLTAILGLPEALIPVQLLWVNLVTDGLPATALGFNPPDLDIMEKPPRNPREALISGWLFFRYLAIGVYVGLATVAAATWWFLYDTEGPQVTFYQLRNFLKCSEDNPLFAGIDCKVFESRFPTTMALSVLVTIEMCNALNSVSENQSLLRMPPWLNPWLLGAVVMSMALHFLILLVPPLPLIFQVTPLSGRQWGVVLQMSLPVILLDEALKYLSRNHMDEKKDLK | decreases | – |
| human SERCA3: OGT knockdown (protein) parent chain: MEAAHLLPAADVLRHFSVTAEGGLSPAQVTGARERYGPNELPSEEGKSLWELVLEQFEDLLVRILLLAALVSFVLAWFEEGEETTTAFVEPLVIMLILVANAIVGVWQERNAESAIEALKEYEPEMGKVIRSDRKGVQRIRARDIVPGDIVEVAVGDKVPADLRLIEIKSTTLRVDQSILTGESVSVTKHTEAIPDPRAVNQDKKNMLFSGTNITSGKAVGVAVATGLHTELGKIRSQMAAVEPERTPLQRKLDEFGRQLSHAISVICVAVWVINIGHFADPAHGGSWLRGAVYYFKIAVALAVAAIPEGLPAVITTCLALGTRRMARKNAIVRSLPSVETLGCTSVICSDKTGTLTTNQMSVCRMFVVAEADAGSCLLHEFTISGTTYTPEGEVRQGDQPVRCGQFDGLVELATICALCNDSALDYNEAKGVYEKVGEATETALTCLVEKMNVFDTDLQALSRVERAGACNTVIKQLMRKEFTLEFSRDRKSMSVYCTPTRPHPTGQGSKMFVKGAPESVIERCSSVRVGSRTAPLTPTSREQILAKIRDWGSGSDTLRCLALATRDAPPRKEDMELDDCSKFVQYETDLTFVGCVGMLDPPRPEVAACITRCYQAGIRVVMITGDNKGTAVAICRRLGIFGDTEDVAGKAYTGREFDDLSPEQQRQACRTARCFARVEPAHKSRIVENLQSFNEITAMTGDGVNDAPALKKAEIGIAMGSGTAVAKSAAEMVLSDDNFASIVAAVEEGRAIYSNMKQFIRYLISSNVGEVVCIFLTAILGLPEALIPVQLLWVNLVTDGLPATALGFNPPDLDIMEKLPRSPREALISGWLFFRYLAIGVYVGLATVAAATWWFVYDAEGPHINFYQLRNFLKCSEDNPLFAGIDCEVFESRFPTTMALSVLVTIEMCNALNSVSENQSLLRMPPWMNPWLLVAVAMSMALHFLILLVPPLPLIFQVTPLSGRQWVVVLQISLPVILLDEALKYLSRNHMHEEMSQK | – | decreases |
